Data from the supplement of paper PMC9112550, “Optimization of the antimicrobial peptide Bac7 by deep mutational scanning” (BMC Biology, 2022).

Tested on: Escherichia coli TOP10
Assay: shrunken log2 fold change of peptide-encoding DNA abundance (4.5 h post-induction vs induction); higher = less antimicrobial activity (less host growth inhibition)
Conditions: time post-induction: 4.5 h; library: site-saturation at positions 5, 18, 19, 20
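Further: peptides expressed intracellularly from a pBAD plasmid library in pooled LB shake-flask culture, induced with 0.3% L-arabinose, DNA abundance read by NGS, three biological replicates, DESeq2 with apeglm shrinkage.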

## RRIRLRPPRLPRPRPRPVPDPRP
  shrunken log2 fold change: 0.00559

## RRIRLRPPRLPRPRPRPVPLPRP
  shrunken log2 fold change: -0.174

## RRIRLRPPRLPRPRPRPVPTPRP
  shrunken log2 fold change: 0.0616

## RRIRLRPPRLPRPRPRPVQQPRP
  shrunken log2 fold change: 0.053

## RRIRLRPPRLPRPRPRPVRPPRP
  shrunken log2 fold change: -0.0457

## RRIRLRPPRLPRPRPRPVRWPRP
  shrunken log2 fold change: 0.928

## RRIRLRPPRLPRPRPRPVSFPRP
  shrunken log2 fold change: 0.0353

## RRIRLRPPRLPRPRPRPVVSPRP
  shrunken log2 fold change: -0.054

## RRIRLRPPRLPRPRPRPVWLPRP
  shrunken log2 fold change: 0.242

## RRIRLRPPRLPRPRPRPWAVPRP
  shrunken log2 fold change: 0.0558

## RRIRLRPPRLPRPRPRPWCCPRP
  shrunken log2 fold change: -0.234

## RRIRLRPPRLPRPRPRPWFPPRP
  shrunken log2 fold change: -0.157

## RRIRLRPPRLPRPRPRPWGEPRP
  shrunken log2 fold change: -0.0317

## RRIRLRPPRLPRPRPRPWKAPRP
  shrunken log2 fold change: -0.0344

## RRIRLRPPRLPRPRPRPWLGPRP
  shrunken log2 fold change: 0.181

## RRIRLRPPRLPRPRPRPWMFPRP
  shrunken log2 fold change: -0.108

## RRIRLRPPRLPRPRPRPWMGPRP
  shrunken log2 fold change: -0.363

## RRIRLRPPRLPRPRPRPWMPPRP
  shrunken log2 fold change: -0.0741

## RRIRLRPPRLPRPRPRPWNQPRP
  shrunken log2 fold change: 0.0295

## RRIRLRPPRLPRPRPRPWPCPRP
  shrunken log2 fold change: 0.209

## RRIRLRPPRLPRPRPRPWPEPRP
  shrunken log2 fold change: 0.243

## RRIRLRPPRLPRPRPRPWPGPRP
  shrunken log2 fold change: 0.0987

## RRIRLRPPRLPRPRPRPWPPPRP
  shrunken log2 fold change: 0.668

## RRIRLRPPRLPRPRPRPWRVPRP
  shrunken log2 fold change: 0.488

## RRIRLRPPRLPRPRPRPWSDPRP
  shrunken log2 fold change: -0.188

## RRIRLRPPRLPRPRPRPWSRPRP
  shrunken log2 fold change: -0.264

## RRIRLRPPRLPRPRPRPWTEPRP
  shrunken log2 fold change: -0.01

## RRIRLRPPRLPRPRPRPWTMPRP
  shrunken log2 fold change: -0.202

## RRIRLRPPRLPRPRPRPWVGPRP
  shrunken log2 fold change: 0.233

## RRIRLRPPRLPRPRPRPWVPPRP
  shrunken log2 fold change: -0.569

## RRIRLRPPRLPRPRPRPWVQPRP
  shrunken log2 fold change: -0.118

## RRIRLRPPRLPRPRPRPWWHPRP
  shrunken log2 fold change: 0.0812

## RRIRLRPPRLPRPRPRPYAFPRP
  shrunken log2 fold change: 0.0808

## RRIRLRPPRLPRPRPRPYAKPRP
  shrunken log2 fold change: 0.0695

## RRIRLRPPRLPRPRPRPYCIPRP
  shrunken log2 fold change: -0.121

## RRIRLRPPRLPRPRPRPYCQPRP
  shrunken log2 fold change: -0.797

## RRIRLRPPRLPRPRPRPYDEPRP
  shrunken log2 fold change: -0.353

## RRIRLRPPRLPRPRPRPYDGPRP
  shrunken log2 fold change: 0.0118

## RRIRLRPPRLPRPRPRPYDQPRP
  shrunken log2 fold change: -0.562

## RRIRLRPPRLPRPRPRPYENPRP
  shrunken log2 fold change: -0.0259

## RRIRLRPPRLPRPRPRPYEWPRP
  shrunken log2 fold change: -0.00151

## RRIRLRPPRLPRPRPRPYISPRP
  shrunken log2 fold change: -0.374

## RRIRLRPPRLPRPRPRPYKTPRP
  shrunken log2 fold change: -0.352

## RRIRLRPPRLPRPRPRPYLDPRP
  shrunken log2 fold change: 0.0027

## RRIRLRPPRLPRPRPRPYLTPRP
  shrunken log2 fold change: -0.663

## RRIRLRPPRLPRPRPRPYMAPRP
  shrunken log2 fold change: -0.608

## RRIRLRPPRLPRPRPRPYPHPRP
  shrunken log2 fold change: -0.323

## RRIRLRPPRLPRPRPRPYPYPRP
  shrunken log2 fold change: -0.076

## RRIRLRPPRLPRPRPRPYRCPRP
  shrunken log2 fold change: -0.268

## RRIRLRPPRLPRPRPRPYSNPRP
  shrunken log2 fold change: -0.212

## RRIRLRPPRLPRPRPRPYTAPRP
  shrunken log2 fold change: -0.863

## RRIRLRPPRLPRPRPRPYVEPRP
  shrunken log2 fold change: -0.322

## RRIRLRPPRLPRPRPRPYVRPRP
  shrunken log2 fold change: 0.0394

## RRIRLRPPRLPRPRPRPYWIPRP
  shrunken log2 fold change: -0.00778

## RRIRLRPPRLPRPRPRPYYIPRP
  shrunken log2 fold change: -0.982

## RRIRMRPPRLPRPRPRPAADPRP
  shrunken log2 fold change: 2.81

## RRIRMRPPRLPRPRPRPAAGPRP
  shrunken log2 fold change: 1.56

## RRIRMRPPRLPRPRPRPAAPPRP
  shrunken log2 fold change: 1.65

## RRIRMRPPRLPRPRPRPADRPRP
  shrunken log2 fold change: 0.707

## RRIRMRPPRLPRPRPRPAELPRP
  shrunken log2 fold change: 0.604

## RRIRMRPPRLPRPRPRPAEQPRP
  shrunken log2 fold change: 0.395

## RRIRMRPPRLPRPRPRPAFPPRP
  shrunken log2 fold change: -0.104

## RRIRMRPPRLPRPRPRPAGCPRP
  shrunken log2 fold change: 0.842

## RRIRMRPPRLPRPRPRPAGNPRP
  shrunken log2 fold change: 0.396

## RRIRMRPPRLPRPRPRPAGTPRP
  shrunken log2 fold change: 0.627

## RRIRMRPPRLPRPRPRPAKCPRP
  shrunken log2 fold change: 0.147

## RRIRMRPPRLPRPRPRPAKKPRP
  shrunken log2 fold change: 0.209

## RRIRMRPPRLPRPRPRPAKQPRP
  shrunken log2 fold change: 1.12

## RRIRMRPPRLPRPRPRPAKTPRP
  shrunken log2 fold change: 0.0368

## RRIRMRPPRLPRPRPRPALAPRP
  shrunken log2 fold change: 1.08

## RRIRMRPPRLPRPRPRPALCPRP
  shrunken log2 fold change: 0.221

## RRIRMRPPRLPRPRPRPALSPRP
  shrunken log2 fold change: 0.539

## RRIRMRPPRLPRPRPRPAMLPRP
  shrunken log2 fold change: 1.22

## RRIRMRPPRLPRPRPRPAMWPRP
  shrunken log2 fold change: 0.511

## RRIRMRPPRLPRPRPRPANMPRP
  shrunken log2 fold change: -0.203

## RRIRMRPPRLPRPRPRPAPVPRP
  shrunken log2 fold change: 0.764

## RRIRMRPPRLPRPRPRPAQNPRP
  shrunken log2 fold change: 1.07

## RRIRMRPPRLPRPRPRPAQSPRP
  shrunken log2 fold change: 2.88

## RRIRMRPPRLPRPRPRPARWPRP
  shrunken log2 fold change: 1.49

## RRIRMRPPRLPRPRPRPASDPRP
  shrunken log2 fold change: 0.869

## RRIRMRPPRLPRPRPRPASHPRP
  shrunken log2 fold change: 0.343

## RRIRMRPPRLPRPRPRPASYPRP
  shrunken log2 fold change: 0.0757

## RRIRMRPPRLPRPRPRPATMPRP
  shrunken log2 fold change: 0.256

## RRIRMRPPRLPRPRPRPAVDPRP
  shrunken log2 fold change: 0.154

## RRIRMRPPRLPRPRPRPAVIPRP
  shrunken log2 fold change: -0.1

## RRIRMRPPRLPRPRPRPAVKPRP
  shrunken log2 fold change: 0.0878

## RRIRMRPPRLPRPRPRPAWHPRP
  shrunken log2 fold change: 0.726

## RRIRMRPPRLPRPRPRPCAPPRP
  shrunken log2 fold change: 0.478

## RRIRMRPPRLPRPRPRPCATPRP
  shrunken log2 fold change: 2.58

## RRIRMRPPRLPRPRPRPCENPRP
  shrunken log2 fold change: 0.0192

## RRIRMRPPRLPRPRPRPCEVPRP
  shrunken log2 fold change: -0.181

## RRIRMRPPRLPRPRPRPCFDPRP
  shrunken log2 fold change: 0.0386

## RRIRMRPPRLPRPRPRPCFEPRP
  shrunken log2 fold change: 0.286

## RRIRMRPPRLPRPRPRPCFPPRP
  shrunken log2 fold change: 0.157

## RRIRMRPPRLPRPRPRPCHFPRP
  shrunken log2 fold change: -0.0459

## RRIRMRPPRLPRPRPRPCHHPRP
  shrunken log2 fold change: -0.353

## RRIRMRPPRLPRPRPRPCILPRP
  shrunken log2 fold change: 0.053

## RRIRMRPPRLPRPRPRPCKGPRP
  shrunken log2 fold change: -0.0617

## RRIRMRPPRLPRPRPRPCKIPRP
  shrunken log2 fold change: -0.0518

## RRIRMRPPRLPRPRPRPCKMPRP
  shrunken log2 fold change: 0.0367

## RRIRMRPPRLPRPRPRPCLSPRP
  shrunken log2 fold change: -0.0592

## RRIRMRPPRLPRPRPRPCLYPRP
  shrunken log2 fold change: -0.331

## RRIRMRPPRLPRPRPRPCNNPRP
  shrunken log2 fold change: 0.0654

## RRIRMRPPRLPRPRPRPCNTPRP
  shrunken log2 fold change: -0.238

## RRIRMRPPRLPRPRPRPCPRPRP
  shrunken log2 fold change: 0.167

## RRIRMRPPRLPRPRPRPCQAPRP
  shrunken log2 fold change: 0.0538

## RRIRMRPPRLPRPRPRPCQPPRP
  shrunken log2 fold change: -0.0351

## RRIRMRPPRLPRPRPRPCRQPRP
  shrunken log2 fold change: 0.0303

## RRIRMRPPRLPRPRPRPCSAPRP
  shrunken log2 fold change: 1.24

## RRIRMRPPRLPRPRPRPCSFPRP
  shrunken log2 fold change: 0.0622

## RRIRMRPPRLPRPRPRPCSPPRP
  shrunken log2 fold change: 0.0324

## RRIRMRPPRLPRPRPRPCSWPRP
  shrunken log2 fold change: 0.0611

## RRIRMRPPRLPRPRPRPCTPPRP
  shrunken log2 fold change: 0.154

## RRIRMRPPRLPRPRPRPCWEPRP
  shrunken log2 fold change: -0.0572

## RRIRMRPPRLPRPRPRPCYPPRP
  shrunken log2 fold change: -0.352

## RRIRMRPPRLPRPRPRPDADPRP
  shrunken log2 fold change: 3.36

## RRIRMRPPRLPRPRPRPDATPRP
  shrunken log2 fold change: 3.93

## RRIRMRPPRLPRPRPRPDEFPRP
  shrunken log2 fold change: 1.49

## RRIRMRPPRLPRPRPRPDHAPRP
  shrunken log2 fold change: 0.0825

## RRIRMRPPRLPRPRPRPDHHPRP
  shrunken log2 fold change: -0.111

## RRIRMRPPRLPRPRPRPDIEPRP
  shrunken log2 fold change: 1.3

## RRIRMRPPRLPRPRPRPDKFPRP
  shrunken log2 fold change: 0.194

## RRIRMRPPRLPRPRPRPDMIPRP
  shrunken log2 fold change: -0.00213

## RRIRMRPPRLPRPRPRPDMPPRP
  shrunken log2 fold change: -0.0178

## RRIRMRPPRLPRPRPRPDNHPRP
  shrunken log2 fold change: -0.21

## RRIRMRPPRLPRPRPRPDNPPRP
  shrunken log2 fold change: 0.0534

## RRIRMRPPRLPRPRPRPDQLPRP
  shrunken log2 fold change: 0.391

## RRIRMRPPRLPRPRPRPDTVPRP
  shrunken log2 fold change: 0.00533

## RRIRMRPPRLPRPRPRPDVEPRP
  shrunken log2 fold change: 3.52

## RRIRMRPPRLPRPRPRPDWRPRP
  shrunken log2 fold change: 0.276

## RRIRMRPPRLPRPRPRPDWWPRP
  shrunken log2 fold change: 0.218

## RRIRMRPPRLPRPRPRPEDEPRP
  shrunken log2 fold change: 2.06

## RRIRMRPPRLPRPRPRPEECPRP
  shrunken log2 fold change: 0.0665

## RRIRMRPPRLPRPRPRPEEIPRP
  shrunken log2 fold change: 0.0117

## RRIRMRPPRLPRPRPRPEFWPRP
  shrunken log2 fold change: 0.893

## RRIRMRPPRLPRPRPRPEGAPRP
  shrunken log2 fold change: 3.32

## RRIRMRPPRLPRPRPRPEGDPRP
  shrunken log2 fold change: 4.15

## RRIRMRPPRLPRPRPRPEGFPRP
  shrunken log2 fold change: 2.81

## RRIRMRPPRLPRPRPRPEHFPRP
  shrunken log2 fold change: 0.0315

## RRIRMRPPRLPRPRPRPEHPPRP
  shrunken log2 fold change: 0.75

## RRIRMRPPRLPRPRPRPEHYPRP
  shrunken log2 fold change: -0.0905

## RRIRMRPPRLPRPRPRPEILPRP
  shrunken log2 fold change: 0.121

## RRIRMRPPRLPRPRPRPEIMPRP
  shrunken log2 fold change: 2.57

## RRIRMRPPRLPRPRPRPEKRPRP
  shrunken log2 fold change: 0.0458

## RRIRMRPPRLPRPRPRPELPPRP
  shrunken log2 fold change: 2.29

## RRIRMRPPRLPRPRPRPEMAPRP
  shrunken log2 fold change: 3.69

## RRIRMRPPRLPRPRPRPEMGPRP
  shrunken log2 fold change: 2.44

## RRIRMRPPRLPRPRPRPEMIPRP
  shrunken log2 fold change: 2.2

## RRIRMRPPRLPRPRPRPERNPRP
  shrunken log2 fold change: 0.0507

## RRIRMRPPRLPRPRPRPEVEPRP
  shrunken log2 fold change: -0.0272
